Results as given in publication PMC8072677.

Molecular target: CCR7-EGFP (human CCR7 fused to EGFP) (human) (UniProt P32248)
UniProt P32248, sequence (P32248 25-378): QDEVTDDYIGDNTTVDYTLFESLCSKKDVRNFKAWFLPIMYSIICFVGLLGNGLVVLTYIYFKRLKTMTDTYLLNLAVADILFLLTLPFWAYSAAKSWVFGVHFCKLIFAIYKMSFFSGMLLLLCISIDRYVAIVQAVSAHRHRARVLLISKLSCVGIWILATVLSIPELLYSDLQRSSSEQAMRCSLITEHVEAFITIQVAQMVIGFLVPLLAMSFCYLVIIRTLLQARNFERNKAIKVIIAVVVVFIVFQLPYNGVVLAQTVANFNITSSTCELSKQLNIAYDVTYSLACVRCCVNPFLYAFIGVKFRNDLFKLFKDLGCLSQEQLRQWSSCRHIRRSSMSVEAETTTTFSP

With “CCL19 (recombinant untagged, native mature human CCL19) (from UniProt Q99731 22-98) (ligand)” the Transwell migration of 300-19 pre-B cells stably expressing CCR7 towards graded concentrations of chemokine, 3 h; concentration of maximal migration was 50 nM.
